Broadly, the Kd is the constant that tells how readily two partners part at equilibrium. A word on the koff: it is a measure of how fast the partners let go of each other. Usually kon stands for the second-order rate constant of association.

To fix the notation:
T1: recombinant human CD73 protein (ecto-5'-nucleotidase), expressed by the applicant, C-terminal 6x His tag (human, UniProt P21589 27-547)
T1 sequence: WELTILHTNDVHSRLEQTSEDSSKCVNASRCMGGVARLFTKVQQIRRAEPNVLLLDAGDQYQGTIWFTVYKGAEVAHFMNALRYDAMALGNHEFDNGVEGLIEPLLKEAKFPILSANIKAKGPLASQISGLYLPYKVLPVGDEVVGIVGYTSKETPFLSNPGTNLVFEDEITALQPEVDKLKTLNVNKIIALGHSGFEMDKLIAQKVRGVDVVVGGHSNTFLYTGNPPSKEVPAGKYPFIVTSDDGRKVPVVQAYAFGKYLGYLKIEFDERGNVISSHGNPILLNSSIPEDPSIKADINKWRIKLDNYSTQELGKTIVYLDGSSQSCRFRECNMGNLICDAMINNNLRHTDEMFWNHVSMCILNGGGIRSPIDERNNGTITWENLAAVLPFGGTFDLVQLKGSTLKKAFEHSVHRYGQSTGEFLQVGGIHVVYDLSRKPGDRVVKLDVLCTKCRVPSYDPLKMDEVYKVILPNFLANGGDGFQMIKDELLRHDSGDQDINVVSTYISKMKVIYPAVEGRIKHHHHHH

T2: CD73 on A549 cells (UniProt P21589 27-549, limits assumed)
T2 sequence (looked up): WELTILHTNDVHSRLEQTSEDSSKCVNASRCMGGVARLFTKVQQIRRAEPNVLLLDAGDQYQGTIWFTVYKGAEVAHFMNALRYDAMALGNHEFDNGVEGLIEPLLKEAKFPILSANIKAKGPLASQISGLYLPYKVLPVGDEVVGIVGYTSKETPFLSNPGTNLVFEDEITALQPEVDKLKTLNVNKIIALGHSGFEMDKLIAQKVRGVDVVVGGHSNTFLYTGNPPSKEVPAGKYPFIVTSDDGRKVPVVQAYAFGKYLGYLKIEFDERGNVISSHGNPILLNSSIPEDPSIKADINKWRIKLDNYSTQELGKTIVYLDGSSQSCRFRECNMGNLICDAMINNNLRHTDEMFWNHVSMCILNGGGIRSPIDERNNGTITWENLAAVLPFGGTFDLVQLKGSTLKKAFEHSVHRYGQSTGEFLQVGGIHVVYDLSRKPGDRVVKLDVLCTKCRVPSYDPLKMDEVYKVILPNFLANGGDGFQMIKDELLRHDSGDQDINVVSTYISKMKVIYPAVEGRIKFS

B1: anti-CD73 monoclonal antibody 9-4 (antibody, V domains shown)
VH: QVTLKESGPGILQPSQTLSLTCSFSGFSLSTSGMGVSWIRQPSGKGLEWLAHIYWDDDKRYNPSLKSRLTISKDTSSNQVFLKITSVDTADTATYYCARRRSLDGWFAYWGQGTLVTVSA
VL: DIQMTQSPAALSASVGETVTITCRASGNIHNYLAWYQQKQGKSPQLLVYNTQILADGVPSRFSGSGSGTQYSLKINSLQPEDFGTFYCQHFWDSPWTFGGGTKMEIK
notes: Mouse hybridoma antibody of the IgG type, purified from ascitic fluid
B2: anti-CD73 monoclonal antibody E1-B6 (antibody, V domains shown)
VH: VKLQESGAELARPGASVKLSCKASGYTFTDYYINWVKQRTGQGLEWIGETYPGNGNTYYHEKFKGKATLTADRSSSTAYMQLSSLTSEDSAVYFCARGTYYGSSEYFDYWGQGTTVTVSS
VL: DIVMTQSPKFMSTSVGDRVSITCKASQNVGTAVAWYQQRPGQSPKLLIYSASNRNTGVPDRFTGSGSGTDFTLTISNMQSEDLADYFCQQYSSYIFTFGSGTKLEIN
notes: as for B1
B3: anti-CD73 monoclonal antibody 81-2-2 (antibody, V domains shown)
VH: QVQLQQPGAELVKPGASVKLSCKASGYTFTSYWMHWVKQRPGQGLEWIGEINPSNGRTNYNEKFKSKATLTVDKSSSTAYMQLSSLTSEDSAVYYCARRGTSGNFFDYWGQGTTLTVSS
VL: DIKMTQSPSSMYASLGERVTITCKASQDINTYLSWFQQKPGKSPKTLIYRANRLVDGVPSRFSGSGSGQDYSLTISSLEYEDMGIYYCLQFDEFPYTFGGGTKLEIK
notes: as for B1
B4: anti-CD73 monoclonal antibody F2-2 (antibody, V domains shown)
VH: VQLQESGPGLVKPSQSLSLTCTVTGHSITSDYVWNWIRQFPGNKLEWMGYISYSGIIKYNPSLKSRISITRDTSKNQFFLQLNSVTTEDTATYYCAGDEYFWFAYWGQGTTVTVSS
VL: DIQMTQSPSSMYASLGERVTITCKASQDIKSYLSWYQQKPWKSPKTLIYYATNLADGVPSRFSGSGSGQDYSLTISSLESDDTATYYCLQHGESPYTFGGGTKLEIK
notes: as for B1
B5: anti-CD73 monoclonal antibody 06-6 (antibody, V domains shown)
VH: QVQLQQSGPELVKPGASVRISCKASGYTFADYFMHWVRLRPGQGLEWIGWIYPGYVNIKYNEKFKGKATLTADKSSSTAYMQLSSLTSEDSAVYFCARGEDYDSAMDYWGQGTSVTVSS
VL: GVVMTQTPLSLPVSLGDQASISCRSSQSLVHSNGNTYLHWYLQKPGQSPKLLIYKVSNRFSGVPDRFSGSGSGTDFTLKISRVEAEDLGVYFCSQSTHVPPWTFGGGTKLEIK
notes: as for B1

The first test deals with T1, recombinant human CD73 protein …. Put plainly: cell-based or functional assay.
On to B1, for which the “EC50 (µg/mL), Biochemical level, inhibition of the enzyme activity of CD73” value is 0.211 µg/mL.
Turning to B2, the “EC50 (µg/mL), Biochemical level, inhibition of the enzyme activity of CD73” value came to 0.232 µg/mL.
Still for that read-out and setting: as for B3, the figure is 0.239 µg/mL; as for B4, 0.109 µg/mL.
The same measure, in the same setting: as for B5, the figure is 0.206 µg/mL.

Another test concerns the target T2, CD73 on A549 cells. Put plainly: cell-based or functional assay.
As to B1, the “EC50 (µg/mL), Cell level (A549 cells), inhibition of the enzyme activity of CD73” value amounted to 0.175 µg/mL.
Turning to B2, the “EC50 (µg/mL), Cell level (A549 cells), inhibition of the enzyme activity of CD73” value worked out at 0.182 µg/mL.
Turning to B3, the “EC50 (µg/mL), Cell level (A549 cells), inhibition of the enzyme activity of CD73” value was determined as 0.213 µg/mL.
Still for that read-out and setting: in the case of B4 it was 0.0397 µg/mL; in that of B5, 0.147 µg/mL.

A further test deals with T1, recombinant human CD73 protein …. Put plainly: SPR, Biacore T200, antibody captured by anti-mouse Fc IgG, human CD73 injected, 25 °C, 1:1 fit. Background: SPR reads the build-up and loss of mass on a sensor chip optically.
Experimental: (§1) Anti-mouse Fc IgG was fixated on a CMS sensor chip by amine coupling in order to capture the antibody under test with the coupled anti-mouse Fc IgG. A series of human CD73 proteins having a predetermined concentration gradient were then injected, before the pH 1.7 glycine-HCl regeneration testing system that came with the reagent kit was used.
(§2) HBS-EP+ (10 mM HEPES; pH7.4, 150 mM NaCl; 3 mM EDTA; and 0.05% P20) was used as the running buffer, and the testing temperature was 25° C.
(§3) The binding constant (Ka), dissociation rate constant (Kd), and equilibrium constant (KD) were calculated with the Biacore T200 evaluation software by combining the model fitting data at a 1:1 ratio.
As for B1, the equilibrium dissociation constant (Kd) came to 452 pM, the koff stood at 0.00015 s⁻¹ and the kon came out at 332000 M⁻¹ s⁻¹.
Taken in the same sequence, the figures for B2 were 813 pM, 0.000387 s⁻¹ and 476000 M⁻¹ s⁻¹.
Taken in the same sequence, the figures for B3 were 490 pM, 0.000104 s⁻¹ and 212000 M⁻¹ s⁻¹.
Take B4: the dissociation constant Kd worked out at 31.8 pM, the koff worked out at 1.71e-05 s⁻¹ and the kon is 538000 M⁻¹ s⁻¹.
On to B5, for which the equilibrium dissociation constant (Kd) was found to be 753 pM, the koff was determined as 0.000183 s⁻¹ and the on-rate constant (kon) was determined as 242000 M⁻¹ s⁻¹.

For the next test the target is unchanged. In words: SPR (Biacore T200), antibody captured on anti-mouse Fc IgG chip, human CD73 injected in a concentration series, 25 C, 1:1 fit; the sheet prints E-4 where the 1st table, row 5, column 4 prints 10^-5; E-4 agrees with the printed ka 4.764E+5 and KD 8.129E-10.
Experimental: as §1, §2, §3
Regarding B2, the off-rate constant (koff) came out at 0.000387 s⁻¹.

(Values after US20220356267A1 (JIANGSU KANION PHARMACEUTICAL, published 2022).)
